According to paper PMC2192576 (1996):

T1: influenza virus (A/PR/8/34) HA (hemagglutinin) peptide on HLA-DRA*01:01 / HLA-DRB1*04:01 (human)
T1 peptide: PKYVKQNTLKLAT

T2: influenza virus (A/PR/8/34) HA (hemagglutinin) peptide on HLA-DRA*01:01 / HLA-DRB1*07:01 (human)
T2 peptide: PKYVKQNTLKLAT

B1: JS515.11 TCR (TCR, V domains shown)
Valpha: QSVTQLGSHVSVSEGALVLLRCNYSSSVPPYLFWYVQYPNQGLQLLLKYTTGATLVKGINGFEAEFKKSETSFHLTKPSAHMSDAAEYFCAVSEGGGSEKLVFGKGTKLTVNP
Vbeta: DVKVTQSSRYLVKRTGEKVFLECVQDMDHENMFWYRQDPGLGLRLIYFSYDVEMKEKGDIPEGYSVSREKKERFSLILESASTNQTSMYLCASSPGTSGTTYEQYFGPGTRLTVT
B2: hybrid TCR: JS515.11 TCRA with 3BC6.6 TCRB (TCR, V domains shown)
Valpha: QSVTQLGSHVSVSEGALVLLRCNYSSSVPPYLFWYVQYPNQGLQLLLKYTTGATLVKGINGFEAEFKKSETSFHLTKPSAHMSDAAEYFCAVSEGGGSEKLVFGKGTKLTVNP
Vbeta: DVKVTQSSRYLVKRTGEKVFLECVQDMDHENMFWYRQDPGLGLRLIYFSYDVEMKEKGDIPEGYSVSREKKERFSLILESASTNQTSMYLCASSLTTSGYTFGSGTRLTVV
B3: JS515.11 TCR with Thr-51 substituted with Ser in CDR2 of the alpha chain (TCR, V domains shown)
Valpha: QSVTQLGSHVSVSEGALVLLRCNYSSSVPPYLFWYVQYPNQGLQLLLKYTSGATLVKGINGFEAEFKKSETSFHLTKPSAHMSDAAEYFCAVSEGGGSEKLVFGKGTKLTVNP
Vbeta: DVKVTQSSRYLVKRTGEKVFLECVQDMDHENMFWYRQDPGLGLRLIYFSYDVEMKEKGDIPEGYSVSREKKERFSLILESASTNQTSMYLCASSPGTSGTTYEQYFGPGTRLTVT
B4: hybrid TCR: 3BC6.6 TCRA with JS515.11 TCRB (TCR, V domains shown)
Valpha: QSVTQLGSHVSVSEGALVLLRCNYSSSVPPYLFWYVQYPNQGLQLLLKYTSAATLVKGINGFEAEFKKSETSFHLTKPSAHMSDAAEYFCAVSEDTSYDKVIFGPGTSLSVIP
Vbeta: DVKVTQSSRYLVKRTGEKVFLECVQDMDHENMFWYRQDPGLGLRLIYFSYDVEMKEKGDIPEGYSVSREKKERFSLILESASTNQTSMYLCASSPGTSGTTYEQYFGPGTRLTVT
B5: JS515.11 TCR with Gly-52 substituted with Ala in CDR2 of the alpha chain (TCR, V domains shown)
Valpha: QSVTQLGSHVSVSEGALVLLRCNYSSSVPPYLFWYVQYPNQGLQLLLKYTTAATLVKGINGFEAEFKKSETSFHLTKPSAHMSDAAEYFCAVSEGGGSEKLVFGKGTKLTVNP
Vbeta: DVKVTQSSRYLVKRTGEKVFLECVQDMDHENMFWYRQDPGLGLRLIYFSYDVEMKEKGDIPEGYSVSREKKERFSLILESASTNQTSMYLCASSPGTSGTTYEQYFGPGTRLTVT
B6: 3BC6.6 TCR (TCR, V domains shown)
Valpha: QSVTQLGSHVSVSEGALVLLRCNYSSSVPPYLFWYVQYPNQGLQLLLKYTSAATLVKGINGFEAEFKKSETSFHLTKPSAHMSDAAEYFCAVSEDTSYDKVIFGPGTSLSVIP
Vbeta: DVKVTQSSRYLVKRTGEKVFLECVQDMDHENMFWYRQDPGLGLRLIYFSYDVEMKEKGDIPEGYSVSREKKERFSLILESASTNQTSMYLCASSLTTSGYTFGSGTRLTVV

Legend:
[1] = target: T1, influenza virus (A/PR/8/34) HA …; assay: cytokine release
[2] = target: T2, influenza virus (A/PR/8/34) HA …; assay: cytokine release

Binder	binding result [1]	binding result [2]
B1	recognises	recognises
B2	no recognition	no recognition
B3	–	recognises
B4	no recognition	no recognition
B5	–	recognises
B6	recognises	no recognition
